In patent US20210115124A1 (Genentech, published 2021):
Positions count from the first letter of the chain named. Numbers in names are those of the source. Like-named read-outs stand apart in the source and are kept apart here. Each block holds one binder with its values, some of them ahead of it.

Experiments:
human VEGF (hVEGF) [1] = biological target: T1, human VEGF (hVEGF) (human, UniProt P15692 181-395); assay: SPR
T1 construct: also called VEGF-A
T1 sequence: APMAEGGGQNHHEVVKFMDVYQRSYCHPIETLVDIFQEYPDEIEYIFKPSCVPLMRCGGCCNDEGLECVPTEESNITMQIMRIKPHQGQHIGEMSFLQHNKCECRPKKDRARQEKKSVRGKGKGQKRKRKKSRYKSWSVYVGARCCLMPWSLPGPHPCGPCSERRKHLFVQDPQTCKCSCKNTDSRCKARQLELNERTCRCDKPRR

human VEGF (hVEGF) [2] = biological target: T1, human VEGF (hVEGF); assay: SPR; remark: listed apart in the source
[3] = biological target: T2, VEGF (as used in the HUVEC migration assay) (Homo sapiens (Human), UniProt P15692 181-395); assay: cell-based or functional assay
T2 sequence: T1 sequence

human VEGF165 = human VEGF165 (human, UniProt P15692-4 27-191); assay: cell-based or functional assay
human VEGF (hVEGF) [4] = biological target: T1, human VEGF (hVEGF); assay: SPR (FIG. 10D)
human VEGF (hVEGF) [5] = biological target: T1, human VEGF (hVEGF); assay: SPR single-cycle;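 for Fold change (relative to G6.31): fab variants injected over hVEGF immobilized on a CM5 chip (Biacore T200), threefold dilution series from 0.02 to 50 nM, kinetics fitted with a 1:1 Langmuir model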
human VEGF (hVEGF) [6] = biological target: T1, human VEGF (hVEGF); assay: SPR single-cycle; remark: listed apart in the source;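 for Fold change (relative to G6.31): fab variants injected over hVEGF immobilized on a CM5 chip (Biacore T200), threefold dilution series from 0.02 to 50 nM, kinetics fitted with a 1:1 Langmuir model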
human VEGF (hVEGF) [7] = biological target: T1, human VEGF (hVEGF); assay: BIACORE SPR on immobilised hVEGF; label beside the mutation on the structure of the VEGF-bound G6 Fab (PDB 2FJG)
human VEGF (hVEGF) [8] = biological target: T1, human VEGF (hVEGF); assay: as above; remark: listed apart in the source
human VEGF (hVEGF) [9] = biological target: T1, human VEGF (hVEGF); assay: SPR; remark: listed apart in the source
human VEGF (hVEGF) [10] = biological target: T1, human VEGF (hVEGF); assay: SPR; remark: listed apart in the source
human VEGF (hVEGF) [11] = biological target: T1, human VEGF (hVEGF); assay: SPR; remark: listed apart in the source
[12] = biological target: T2, VEGF (as used in the HUVEC migration …); assay: cell-based or functional assay; remark: listed apart in the source
human VEGF (hVEGF) [13] = biological target: T1, human VEGF (hVEGF); assay: SPR multiple-cycle

Kd (human VEGF (hVEGF) [1]): 0.584 nM
koff (human VEGF (hVEGF) [1]): 0.000741 s⁻¹
kon (human VEGF (hVEGF) [1]): 1.27e+06 M⁻¹ s⁻¹
Kd (human VEGF (hVEGF) [2]): 0.58 nM
koff (human VEGF (hVEGF) [2]): 0.000741 s⁻¹
kon (human VEGF (hVEGF) [2]): 1.27e+06 M⁻¹ s⁻¹
IC50 relative to G6.31, VEGF-induced HUVEC migration [3]: 0.9 fold
B1: G6.31 AAEE (LC-N94A.LC-F83A.HC-A40E.HC-T57E) (Fab, V domains shown)
VH: EVQLVESGGGLVQPGGSLRLSCAASGFTISDYWIHWVRQEPGKGLEWVAGITPAGGYEYYADSVKGRFTISADTSKNTAYLQMNSLRAEDTAVYYCARFVFFLPYAMDYWGQGTLVTVSS
VL: DIQMTQSPSSLSASVGDRVTITCRASQDVSTAVAWYQQKPGKAPKLLIYSASFLYSGVPSRFSGSGSGTDFTLTISSLQPEDAATYYCQQGYGAPFTFGQGTKVEIK
notes: Fab; also called HC-A40E, HC-T57E, LC-F83A, LC-N94A

fold increase in potency against the unconjugated parent Fab, pKDR assay (human VEGF165): ~7 fold
B2: HA100K-G6.31 AARR (other)
VH: B1 VH with E40A, E58T, Y59R, N84R
VL: B1 VL
modifications: free hinge cysteine of the Fab-C heavy chain linked through maleimide to linear 100 kDa hyaluronic acid

fold increase in affinity (human VEGF (hVEGF) [4]): 3 fold
B3: G6.31 LC-F83V (Fab, V domains shown)
VH: B1 VH with E40A, E58T
VL: B1 VL with A83V, A94N
notes: Fab

Fold difference (relative to G6.31) (human VEGF (hVEGF) [5]): 3.8 fold
Kd (human VEGF (hVEGF) [5]): 0.41 nM
koff (human VEGF (hVEGF) [5]): 0.000466 s⁻¹
kon (human VEGF (hVEGF) [5]): 1.13e+06 M⁻¹ s⁻¹
Fold change (relative to G6.31) (human VEGF (hVEGF) [6]): 0.6 fold
Kd (human VEGF (hVEGF) [6]): 2.63 nM
koff (human VEGF (hVEGF) [6]): 0.000517 s⁻¹
kon (human VEGF (hVEGF) [6]): 197000 M⁻¹ s⁻¹
fold change in binding affinity (Kd) compared to G6.31 (human VEGF (hVEGF) [7]): 4 x
B4: G6.31 HC-A40E (Fab, name in Kabat numbering, V domains shown)
VH: B1 VH with E58T
VL: B1 VL with A83F, A94N
notes: Fab

Fold difference (relative to G6.31) (human VEGF (hVEGF) [5]): 1.2 fold
Kd (human VEGF (hVEGF) [5]): 1.31 nM
koff (human VEGF (hVEGF) [5]): 0.000611 s⁻¹
kon (human VEGF (hVEGF) [5]): 467000 M⁻¹ s⁻¹
fold change in binding affinity (Kd) compared to G6.31 (human VEGF (hVEGF) [8]): 1 x
B5: G6.31 LC-S50M (Fab, V domains shown)
VH: B1 VH with E40A, E58T
VL: B1 VL with S50M, A83F, A94N
notes: Fab

Fold difference (relative to G6.31) (human VEGF (hVEGF) [5]): 6.7 fold
Kd (human VEGF (hVEGF) [5]): 0.23 nM
koff (human VEGF (hVEGF) [5]): 0.000322 s⁻¹
kon (human VEGF (hVEGF) [5]): 1.39e+06 M⁻¹ s⁻¹
Fold improved (relative to WT) (human VEGF (hVEGF) [9]): 6.8 fold
Kd (human VEGF (hVEGF) [9]): 0.077 nM
koff (human VEGF (hVEGF) [9]): 0.000124 s⁻¹
kon (human VEGF (hVEGF) [9]): 1.62e+06 M⁻¹ s⁻¹
fold increase in affinity compared to wild-type G6.31 (human VEGF (hVEGF) [10]): ~6.6 fold
fold change in binding affinity (Kd) compared to G6.31 (human VEGF (hVEGF) [7]): 7 x
B6: G6.31 HC-N82aR (Fab, name in Kabat numbering, V domains shown)
VH: B1 VH with E40A, E58T, N84R
VL: B1 VL with A83F, A94N
notes: Fab

Fold difference (relative to G6.31) (human VEGF (hVEGF) [5]): 7.7 fold
Kd (human VEGF (hVEGF) [5]): 0.2 nM
koff (human VEGF (hVEGF) [5]): 0.000402 s⁻¹
kon (human VEGF (hVEGF) [5]): 1.93e+06 M⁻¹ s⁻¹
fold increase in affinity compared to wild-type G6.31 (human VEGF (hVEGF) [10]): 8 to 9 fold
fold change in binding affinity (Kd) compared to G6.31 (human VEGF (hVEGF) [7]): 8 x
B7: G6.31 HC-T57E (Fab, name in Kabat numbering, V domains shown)
VH: B1 VH with E40A
VL: B1 VL with A83F, A94N
notes: Fab

Fold difference (relative to G6.31) (human VEGF (hVEGF) [5]): 1.4 fold
Kd (human VEGF (hVEGF) [5]): 1.09 nM
koff (human VEGF (hVEGF) [5]): 0.000644 s⁻¹
kon (human VEGF (hVEGF) [5]): 589000 M⁻¹ s⁻¹
fold increase in affinity compared to wild-type G6.31 (human VEGF (hVEGF) [10]): ~1.6 fold
fold change in binding affinity (Kd) compared to G6.31 (human VEGF (hVEGF) [8]): 2 x
B8: G6.31 LC-L73G (Fab, V domains shown)
VH: B1 VH with E40A, E58T
VL: B1 VL with L73G, A83F, A94N
notes: Fab

Fold difference (relative to G6.31) (human VEGF (hVEGF) [5]): 9.1 fold
Kd (human VEGF (hVEGF) [5]): 0.17 nM
koff (human VEGF (hVEGF) [5]): 0.000255 s⁻¹
kon (human VEGF (hVEGF) [5]): 1.48e+06 M⁻¹ s⁻¹
Fold improved (relative to WT) (human VEGF (hVEGF) [9]): 6.9 fold
Kd (human VEGF (hVEGF) [9]): 0.076 nM
koff (human VEGF (hVEGF) [9]): 0.000184 s⁻¹
kon (human VEGF (hVEGF) [9]): 2.42e+06 M⁻¹ s⁻¹
fold increase in affinity compared to wild-type G6.31 (human VEGF (hVEGF) [10]): 8 to 9 fold
fold change in binding affinity (Kd) compared to G6.31 (human VEGF (hVEGF) [7]): 9 x
B9: G6.31 HC-Y58R (Fab, name in Kabat numbering, V domains shown)
VH: B1 VH with E40A, E58T, Y59R
VL: B1 VL with A83F, A94N
notes: Fab

Fold difference (relative to G6.31) (human VEGF (hVEGF) [5]): 2.8 fold
Kd (human VEGF (hVEGF) [5]): 0.56 nM
koff (human VEGF (hVEGF) [5]): 0.000655 s⁻¹
kon (human VEGF (hVEGF) [5]): 1.17e+06 M⁻¹ s⁻¹
fold change in binding affinity (Kd) compared to G6.31 (human VEGF (hVEGF) [8]): 3 x
B10: G6.31 LC-D28R (Fab, V domains shown)
VH: B1 VH with E40A, E58T
VL: B1 VL with D28R, A83F, A94N
notes: Fab

Fold difference (relative to G6.31) (human VEGF (hVEGF) [5]): 3.7 fold
Kd (human VEGF (hVEGF) [5]): 0.42 nM
koff (human VEGF (hVEGF) [5]): 0.000493 s⁻¹
kon (human VEGF (hVEGF) [5]): 1.17e+06 M⁻¹ s⁻¹
fold change in binding affinity (Kd) compared to G6.31 (human VEGF (hVEGF) [8]): 4 x
B11: G6.31 LC-Q89T (Fab, V domains shown)
VH: B1 VH with E40A, E58T
VL: B1 VL with A83F, Q89T, A94N
notes: Fab

Kd (human VEGF (hVEGF) [1]): 1.71 nM
koff (human VEGF (hVEGF) [1]): 0.00111 s⁻¹
kon (human VEGF (hVEGF) [1]): 648000 M⁻¹ s⁻¹
Kd (human VEGF (hVEGF) [11]): 1.43 nM
koff (human VEGF (hVEGF) [11]): 0.000766 s⁻¹
kon (human VEGF (hVEGF) [11]): 537000 M⁻¹ s⁻¹
Kd (human VEGF (hVEGF) [2]): 1.71 nM
koff (human VEGF (hVEGF) [2]): 0.00111 s⁻¹
kon (human VEGF (hVEGF) [2]): 648000 M⁻¹ s⁻¹
IC50 relative to G6.31, VEGF-induced HUVEC migration [3]: 5.1 fold
B12: G6.31 LC-N94A.LC-F83A (Fab, V domains shown)
VH: B1 VH with E40A, E58T
VL: B1 VL
notes: Fab; also called LC-F83A, LC-N94A; LCcombo5

Fold difference (relative to G6.31) (human VEGF (hVEGF) [5]): 0.4 fold
Kd (human VEGF (hVEGF) [5]): 3.93 nM
koff (human VEGF (hVEGF) [5]): 0.00131 s⁻¹
kon (human VEGF (hVEGF) [5]): 334000 M⁻¹ s⁻¹
Fold improved (relative to WT) (human VEGF (hVEGF) [9]): 0.5 fold
Kd (human VEGF (hVEGF) [9]): 1.06 nM
koff (human VEGF (hVEGF) [9]): 0.00169 s⁻¹
kon (human VEGF (hVEGF) [9]): 1.59e+06 M⁻¹ s⁻¹
IC50 (read off the curve), VEGF-induced HUVEC migration [12]: ~7 nM
Kd (human VEGF (hVEGF) [13]): 1.06 nM
koff (human VEGF (hVEGF) [13]): 0.00169 s⁻¹
kon (human VEGF (hVEGF) [13]): 1.59e+06 M⁻¹ s⁻¹
Kd (human VEGF (hVEGF) [2]): 1.06 nM
koff (human VEGF (hVEGF) [2]): 0.00169 s⁻¹
kon (human VEGF (hVEGF) [2]): 1.56e+06 M⁻¹ s⁻¹
IC50 relative to G6.31, VEGF-induced HUVEC migration [3]: 5.2 fold
B13: G6.31 LC-N94A (Fab, V domains shown)
VH: B1 VH with E40A, E58T
VL: B1 VL with A83F
notes: Fab

Fold difference (relative to G6.31) (human VEGF (hVEGF) [5]): 3.1 fold
Kd (human VEGF (hVEGF) [5]): 0.5 nM
koff (human VEGF (hVEGF) [5]): 0.000433 s⁻¹
kon (human VEGF (hVEGF) [5]): 855000 M⁻¹ s⁻¹
Fold improved (relative to WT) (human VEGF (hVEGF) [9]): 4 fold
Kd (human VEGF (hVEGF) [9]): 0.132 nM
koff (human VEGF (hVEGF) [9]): 0.000218 s⁻¹
kon (human VEGF (hVEGF) [9]): 1.65e+06 M⁻¹ s⁻¹
fold increase in affinity compared to wild-type G6.31 (human VEGF (hVEGF) [10]): 3 fold
fold change in binding affinity (Kd) compared to G6.31 (human VEGF (hVEGF) [8]): 3 x
B14: G6.31 LC-F83A (Fab, V domains shown)
VH: B1 VH with E40A, E58T
VL: B1 VL with A94N
notes: Fab

Fold difference (relative to G6.31) (human VEGF (hVEGF) [5]): 0.6 fold
Kd (human VEGF (hVEGF) [5]): 2.47 nM
koff (human VEGF (hVEGF) [5]): 0.000558 s⁻¹
kon (human VEGF (hVEGF) [5]): 225000 M⁻¹ s⁻¹
fold change in binding affinity (Kd) compared to G6.31 (human VEGF (hVEGF) [8]): 0.5 x
B15: G6.31 LC-Y36G (Fab, V domains shown)
VH: B1 VH with E40A, E58T
VL: B1 VL with Y36G, A83F, A94N
notes: Fab
